The record followed here is US20200239570A1 (CRESCENDO BIOLOGICS, published 2020).

The term Kd denotes the constant that tells how readily two partners part at equilibrium. The kon is the second-order rate constant of association. In general, EC50 refers to the concentration needed to bring the measured effect to its halfway point. The term EC50 (read off the curve) denotes the concentration needed to bring the measured effect to its halfway point. A higher EC50 (read off the curve) goes with weaker potency. The term IC50 denotes the concentration at which inhibition is half-maximal. What is called koff is the first-order rate constant of dissociation.

Numbering of substitutions follows the chain as printed. Like-named read-outs stand apart in the source and are kept apart here.

For assay [1], the target named is human PD-1 expressed on cells (CHO human PD-1 cells) (human) (UniProt Q15116).
Sequence of human PD-1 expressed on cells (CHO human PD-1 cells) (human) (Q15116 21-288): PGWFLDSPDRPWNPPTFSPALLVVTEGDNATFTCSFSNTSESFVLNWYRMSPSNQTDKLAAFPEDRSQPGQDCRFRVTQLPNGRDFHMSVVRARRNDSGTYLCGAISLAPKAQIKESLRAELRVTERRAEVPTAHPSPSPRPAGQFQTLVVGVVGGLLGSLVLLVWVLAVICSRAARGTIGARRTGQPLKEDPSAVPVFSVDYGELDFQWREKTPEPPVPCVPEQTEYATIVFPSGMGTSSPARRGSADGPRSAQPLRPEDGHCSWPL
The target is the same in assay [2]. The source holds these as a separate data set.
Assay [3] addresses T1, recombinant human PD-1 Fc chimera (human, UniProt Q15116 25-167).
T1 construct: Bought (R&D 1086-PD); Labelled with europium cryptate in the PD-L2 HTRF assay; also called human PD-1 (R&D Systems cat no. 1086-PD); human PD-1-huFc; not shown: human Fc of the bought chimera
The assay is described as follows: HTRF inhibition assay: biotinylated PD-L2-Fc binding to Europium cryptate labelled human PD-1-Fc; the target of the control antibody is not given.

Assay [4] has as its target T1, recombinant human PD-1 Fc chimera. The assay is described as follows: HTRF inhibition assay: strep tagged human PD-L1 binding to recombinant human PD-1 (PD-L1 by legend paragraph 65; the sheet's title reads PD1:PDL2); the target of the control antibody is not given.
In assay [5] the target is T2, human PD-1 expressed on cells (CHO human PD-1 cells) (human, UniProt Q15116 21-288). The assay is described as follows: cell-based or functional assay.
T2 sequence (Q15116 21-288): as above
The target of assay [6] is T3, mouse PD1 (R&D Systems cat no. 1021-PD) (mouse, UniProt Q02242 25-167).
T3 construct: bought recombinant protein; also called mouse PD-1 protein
T3 sequence (looked up): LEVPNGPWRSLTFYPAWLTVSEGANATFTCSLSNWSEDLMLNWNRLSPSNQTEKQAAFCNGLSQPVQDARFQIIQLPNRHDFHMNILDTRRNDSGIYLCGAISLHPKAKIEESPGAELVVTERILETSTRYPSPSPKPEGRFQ
The assay is described as follows: HTRF binding assay on mouse PD-1. As to the method: (§1) Purified VH were tested for their ability to bind to human PD-1 (R&D Systems cat no. 1086-PD), cynomolgus PD-1 (Acro Biosystems cat no. PD1-C5254) and mouse PD1 (R&D Systems cat no. 1021-PD) in an HTRF Binding assay format. All reagents and serially diluted VH were prepared in assay buffer containing PBS, 0.1% BSA and 0.4M Potassium Fluoride. Samples or assay buffer (non-specific binding) were incubated with 2 nM human/cynomolgus or mouse PD-1, 1 nM Anti human-Fc Cryptate PAb (Cisbio cat. no. 61HFCKLB) and 30 nM anti His-D2 (CisBio cat no 61HISDLA) in black 384-shallow well assay plates for a minimum of 3 hours at room temperature. Time-resolved fluorescent emission at 620 nm and 665 nm was measured following excitation at 337 nm on the BMG PHERAstar plate reader. The HTRF ratio were calculated ((665 nm emission/620 nm emission)*10000) and the data corrected for (non-specific binding) to give the specific binding signal.

Assay [7] addresses T1, recombinant human PD-1 Fc chimera. The assay is described as follows: BLI (Octet), PD-1-huFc on biosensor, 1:1 fit. The procedure:
Binding kinetics of clones to human PD-1-huFc were measured in real-time bio-layer interferometer based biosensor Octet (ForteBio). Recombinant human PD-1-huFc was either immobilized by standard amine coupling to amine reactive biosensors in 10 mM sodium acetate at pH 5.0 or capture by protein G biosensors (ForteBio). All the binding studies were performed in HBS-ET Octet kinetics buffer. Biosensors were always washed in Octet kinetics buffer in between different steps. A seven point, two-fold dilution series of each Humabody® VH was made with a top concentration in range 100-30 nM. The contact time for each of the association steps was varied between 180-300 seconds and the dissociation step was varied between 400-600 seconds. Kinetic association (kₐ) and dissociation (kd) rate constants were determined by processing and fitting the data to a 1:1 binding model using ForteBio Analysis software.
A general note: In BLI a coated tip is dipped into the sample, and binding shifts an interference pattern.

For assay [8] the target is unchanged. The assay is described as follows: HTRF binding assay, His-tagged VH on 2 nM recombinant PD-1. The procedure: as §1
Assay [9] has as its target T4, cynomolgus PD-1 (Acro Biosystems cat no. PD1-C5254) (cynomolgus, UniProt B0LAJ3 25-170).
T4 construct: bought recombinant protein; also called cyno PD-1; cynomolgus PD-1 recombinant protein; not shown: Human Fc tag of the vendor's construct, and any linker to it; The Fc is implied by detection with anti human-Fc cryptate
The assay is described as above. The procedure:
as §1

The target of assay [10] is T2, human PD-1 expressed on cells (CHO …). The assay is described as follows: FMAT binding assay on CHO human PD-1 cells, detection by anti-His. An excerpt: Plates were read in the FL2 (502 nm-537 nm) and FL5 (677-800 nm) channels on the TTP Mirrorball plate reader following excitation at 488 nm and 640 nm. Data was gated on FL5 perimeter and peak intensity and the FL2 median mean fluorescence intensity of the gated data used for determination of VH binding.

The target is the same in assay [11]. The assay is described as follows: FMAT epitope competition on CHO human PD-1 cells; competitor 2 nM 1.1-Strep tagged protein. As to the method:
(§2) For the epitope competition assay reagents were prepared in FMAT assay buffer. […] Plates were incubated for a minimum of 1.5 hours at room temperature then fluorescence measured in the FL2 (502 nm-537 nm) and FL5 (677-800 nm) channels on the Mirrorball plate reader (TTP) following excitation at 488 nm and 640 nm. Data was expressed as a % of the total binding control (i.e. % control) after subtraction of the background signal determined from the non-specific binding control wells.

The target is the same in assay [12]. The assay is described as follows: FMAT epitope competition on CHO human PD-1 cells; competitor 2 nM 2.1-Strep tagged protein. The procedure:
as §2

For assay [13], the target named is T1, recombinant human PD-1 Fc chimera. The assay is described as follows: HTRF inhibition assay: strep tagged human PD-L1 binding to recombinant human PD-1 (PD-L1 by legend paragraph 65; the sheet's title reads PD1:PDL2). The procedure:
All samples and reagents were prepared in HTRF assay buffer containing PBS, 0.1% (w/v) BSA and 0.4M Potassium Fluoride. […] Total binding controls containing periplasmic extract sample buffer and non-specific binding controls containing excess untagged competitor were set up on each plate for data normalisation. Time-resolved fluorescent emission at 620 nm and 665 nm was measured following excitation at 337 nm on the BMG PHERAstar plate reader. Data was expressed as a % of the total binding control (% control) after subtraction of the background signal determined from the non-specific binding control wells.
In general terms: In TR-FRET formats the signal depends on donor and acceptor labels being close together.

For assay [14], the target named is human PD-1 expressed on cells (CHO human PD-1 cells) (human) (UniProt Q15116). The source holds these as a separate data set.
Assay [15] addresses T3, mouse PD1 (R&D Systems cat no. 1021-PD). As to the kind of experiment: HTRF binding assay, 2 nM mouse PD-1.
The target of assay [16] is T2, human PD-1 expressed on cells (CHO …). The assay is described as follows: FMAT, His-tagged VH on CHO human PD-1 cells.
The target of assay [17] is T1, recombinant human PD-1 Fc chimera. As to the kind of experiment: SPR (Biacore T200), PD-1-huFc amine-coupled to CM5, single cycle kinetics, 1:1 fit. The procedure: Binding kinetics of certain VH single domain antibodies binding to human PD-1-huFc were measured by surface plasmon resonance (SPR) technology using Biacore T200 instrument (GE Healthcare). Recombinant human PD-1-huFc was immobilized by standard amine coupling to CM5 sensorschip (GE Healthcare) using 0.01 mg/ml solution of antigen in 10 mM sodium acetate at pH 5.5. For the reference flow cell, a blank immobilisation was carried out. Single cycle kinetics assays were used to study the interaction, a five point, three-fold dilution series of each Humabody® was made with a top concentration of 30 nM. The binding kinetics were followed by flowing the Humabody® over the chip surface in HBS EP+ buffer at a flow rate of 30 μl/min. The contact time for each of the association steps was 180 seconds and the dissociation step was varied between 1200-3600 seconds. The data was fitted to a 1:1 binding model after double reference subtraction using the Biacore T200 Evaluation software.
(In general: In SPR one partner is held on a chip, and binding of the other changes the refractive index at the surface.)

T4 sequence (B0LAJ3 entry or part of it limits assumed): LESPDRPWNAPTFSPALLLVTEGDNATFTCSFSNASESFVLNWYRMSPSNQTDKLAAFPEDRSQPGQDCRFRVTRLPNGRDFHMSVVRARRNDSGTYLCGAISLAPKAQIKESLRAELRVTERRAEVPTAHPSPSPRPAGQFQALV
T1 sequence (Q15116 25-167, change not shown): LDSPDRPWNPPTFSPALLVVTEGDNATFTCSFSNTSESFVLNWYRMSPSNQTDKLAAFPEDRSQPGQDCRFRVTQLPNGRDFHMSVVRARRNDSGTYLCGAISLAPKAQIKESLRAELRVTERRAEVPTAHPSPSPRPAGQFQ

For the molecule Control, the EC50 (read off the curve), NFAT-luciferase reporter in assay [1] came to 5 nM; in [2] it was 20 nM.

Take Control anitbody (antibody): the IC50 (read off the curve) in assay [3] and in assay [4] was 0.3 nM throughout.

B1: Blocking VH (VHH)
VHH: EVQLVESGGGLVKPGGSLRLSCAASGFTFSDESMTWMRQAPGKGLEWVSYISSGGGVKFYADSVKGRFTISRDNAKNSLYLQMNSLRAEDTAVYYCAREAPLRLGESPHDAFDISGQGTMVTVSS
As for B1, in assay [5], the “EC50 (read off the curve), NFAT-luciferase reporter” value is roughly 20 nM.

B2: VH single domain antibody 1.1 (VHH)
VHH: EVQLLESGGGSVQPGRSLRLSCAASGFTFDDHAMHWVRQAPGKGLEWVSGISWNSGSMGYADSVKDRFTISRDNAKSSLYLQMNSLRAEDTALYYCVREKGPGLTGSTADYYGLDVWGQGTMVTVSS
notes: human VH single domain antibody (Humabody), purified through its C-terminal His tag; also called Humabody 1.1; clone 1.1
As to B2, the binding result in assay [6] is recorded as “no binding”. Besides, the Kd in [7] worked out at 1.9 nM. The kon in assay [7] was 450000 M⁻¹ s⁻¹. Moreover, the EC50 is 0.5 nM in assay [8] and 0.6 nM in assay [9]. Moreover, the concentration for a half-maximal effect (EC50 (read off the curve)) in [10] is roughly 0.5 nM. Besides, the IC50 in assay [11] was 3.5 nM; in assay [12], 3.6 nM. In addition, the “IC50 (read off the curve)” value in assay [13] was roughly 2 nM.

B3: 1.21 (VHH)
VHH: B2 VHH with L5V, S11L, H32Y, G44D, S55G, D62A, D66G, S77N
notes: also called VH single domain antibody 1.21; Humabody VH 1.21
With B3, the “EC50 (read off the curve)” value in assay [10] is roughly 0.7 nM.

B4: VH single domain antibody 1.2 (VHH)
VHH: EVQLVESGGGLVQPGRSLRLSCAASGFTFDDYAMHWVRQAPGKDLEWVSGISWNGGSMGYAASVKGRFTISRDNAKNSLYLQMNSLRAEDTALYYCVKDKGPGLIGSTADYYGLDVWGQGTTVTVSS
notes: human VH single domain antibody
On to B4, for which, in assay [6], the binding result is listed as “no binding”. Further, the concentration giving a half-maximal response (EC50) came to 0.9 nM in assay [8] and 1.1 nM in assay [9]. For the same molecule, in assay [13], the “IC50 (read off the curve)” value is roughly 5 nM.

B5: Blocking VH-4GS-1.39 (protein, part only; not given: 4GS linker, part only)
VH(A)-linker-VH, part: EVQLVESGGGLVKPGGSLRLSCAASGFTFSDESMTWMRQAPGKGLEWVSYISSGGGVKFYADSVKGRFTISRDNAKNSLYLQMNSLRAEDTAVYYCAREAPLRLGESPHDAFDISGQGTMVTVSSEVQLVESGGGLVQPGRSLRLSCAASGFTFDDYALHWVRQAPGKDLEWVSGISWNGGSYGYADSVKGRFTISRDNAKNSLYLQMNSLRAEDTALYYCVREKGPGLTGSTADYYGLDAWGQGTMVTVSS
Regarding B5, the EC50 (read off the curve), NFAT-luciferase reporter in [14] turned out to be 2 nM.

B6: VH single domain antibody 2.1 (VHH)
VHH: EVQLVESGGGVVRPGGSLRLSCAASGFTFDDYAMSWVRQAPGKGLEWVSGITWNGGSTGYADSVKDRFTISRDNAKNSLYLQMNSLRAEDTALYYCVRDKYSYAWSYDGFDIWGQGTMVTVSS
notes: human VH single domain antibody; also called Humabody VH 2.1; clone 2.1
On to B6, for which the binding result in assay [15] is “no binding”. Besides, the EC50 in [16] came to 0.7 nM; in [8] it was 3.3 nM; in assay [9], 6.3 nM. Besides, the Kd in [7] was determined as 2.6 nM. Further, the koff in assay [7] stood at 0.0015 s⁻¹. In addition, the kon in assay [7] came to 590000 M⁻¹ s⁻¹. The IC50 in assay [11] came to 9.2 nM; in [12], 9.4 nM.

B7: Humabody VH 2.12 (VHH)
VHH: B6 VHH with G55A, D66G, G109D
notes: as for B4
On to B7, for which, in assay [15], the binding result is recorded as “no binding”. Further, the EC50 in assay [16] came to 1.3 nM. Also, the half-maximal effective concentration (EC50) in assay [8] amounted to 13 nM. In addition, the EC50 in assay [9] stood at 18 nM. Besides, in assay [17], the Kd is 6.89 nM, the koff came out at 0.0385 s⁻¹ and the kon came to 5.5e+06 M⁻¹ s⁻¹.

B8: Blocking VH-4GS-2.12 (protein, part only; not given: 4GS linker, part only)
VH(A)-linker-VH, part: EVQLVESGGGLVKPGGSLRLSCAASGFTFSDESMTWMRQAPGKGLEWVSYISSGGGVKFYADSVKGRFTISRDNAKNSLYLQMNSLRAEDTAVYYCAREAPLRLGESPHDAFDISGQGTMVTVSSEVQLVESGGGVVRPGGSLRLSCAASGFTFDDYAMSWVRQAPGKGLEWVSGITWNAGSTGYADSVKGRFTISRDNAKNSLYLQMNSLRAEDTALYYCVRDKYSYAWSYDDFDIWGQGTMVTVSS
Consider B8, for which the EC50 (read off the curve), NFAT-luciferase reporter in [14] worked out at 1 nM.
